# Experimental data published in article PMC4539566.
# Target: fibronectin (Fn) isolated from human plasma, as manually pulled single Fn fibres (human) (UniProt P02751)
# Assay: fluorescence microscopy of a labelled peptide on single Fn fibres (fibre stretch assay); Fn fibres (10% Fn-Alexa647) held across PDMS trenches in a uniaxial strain device, relaxed or stretched (40%, 140%, 380% absolute strain); blocked with 4% BSA 30 min; incubated with CLP-Alexa488 30 min, rinsed and imaged in PBS; CLP-Alexa488/Fn-Alexa647 intensity ratio normalised to the 140% strain point
# Chain of UniProt P02751 (P02751 32-2477): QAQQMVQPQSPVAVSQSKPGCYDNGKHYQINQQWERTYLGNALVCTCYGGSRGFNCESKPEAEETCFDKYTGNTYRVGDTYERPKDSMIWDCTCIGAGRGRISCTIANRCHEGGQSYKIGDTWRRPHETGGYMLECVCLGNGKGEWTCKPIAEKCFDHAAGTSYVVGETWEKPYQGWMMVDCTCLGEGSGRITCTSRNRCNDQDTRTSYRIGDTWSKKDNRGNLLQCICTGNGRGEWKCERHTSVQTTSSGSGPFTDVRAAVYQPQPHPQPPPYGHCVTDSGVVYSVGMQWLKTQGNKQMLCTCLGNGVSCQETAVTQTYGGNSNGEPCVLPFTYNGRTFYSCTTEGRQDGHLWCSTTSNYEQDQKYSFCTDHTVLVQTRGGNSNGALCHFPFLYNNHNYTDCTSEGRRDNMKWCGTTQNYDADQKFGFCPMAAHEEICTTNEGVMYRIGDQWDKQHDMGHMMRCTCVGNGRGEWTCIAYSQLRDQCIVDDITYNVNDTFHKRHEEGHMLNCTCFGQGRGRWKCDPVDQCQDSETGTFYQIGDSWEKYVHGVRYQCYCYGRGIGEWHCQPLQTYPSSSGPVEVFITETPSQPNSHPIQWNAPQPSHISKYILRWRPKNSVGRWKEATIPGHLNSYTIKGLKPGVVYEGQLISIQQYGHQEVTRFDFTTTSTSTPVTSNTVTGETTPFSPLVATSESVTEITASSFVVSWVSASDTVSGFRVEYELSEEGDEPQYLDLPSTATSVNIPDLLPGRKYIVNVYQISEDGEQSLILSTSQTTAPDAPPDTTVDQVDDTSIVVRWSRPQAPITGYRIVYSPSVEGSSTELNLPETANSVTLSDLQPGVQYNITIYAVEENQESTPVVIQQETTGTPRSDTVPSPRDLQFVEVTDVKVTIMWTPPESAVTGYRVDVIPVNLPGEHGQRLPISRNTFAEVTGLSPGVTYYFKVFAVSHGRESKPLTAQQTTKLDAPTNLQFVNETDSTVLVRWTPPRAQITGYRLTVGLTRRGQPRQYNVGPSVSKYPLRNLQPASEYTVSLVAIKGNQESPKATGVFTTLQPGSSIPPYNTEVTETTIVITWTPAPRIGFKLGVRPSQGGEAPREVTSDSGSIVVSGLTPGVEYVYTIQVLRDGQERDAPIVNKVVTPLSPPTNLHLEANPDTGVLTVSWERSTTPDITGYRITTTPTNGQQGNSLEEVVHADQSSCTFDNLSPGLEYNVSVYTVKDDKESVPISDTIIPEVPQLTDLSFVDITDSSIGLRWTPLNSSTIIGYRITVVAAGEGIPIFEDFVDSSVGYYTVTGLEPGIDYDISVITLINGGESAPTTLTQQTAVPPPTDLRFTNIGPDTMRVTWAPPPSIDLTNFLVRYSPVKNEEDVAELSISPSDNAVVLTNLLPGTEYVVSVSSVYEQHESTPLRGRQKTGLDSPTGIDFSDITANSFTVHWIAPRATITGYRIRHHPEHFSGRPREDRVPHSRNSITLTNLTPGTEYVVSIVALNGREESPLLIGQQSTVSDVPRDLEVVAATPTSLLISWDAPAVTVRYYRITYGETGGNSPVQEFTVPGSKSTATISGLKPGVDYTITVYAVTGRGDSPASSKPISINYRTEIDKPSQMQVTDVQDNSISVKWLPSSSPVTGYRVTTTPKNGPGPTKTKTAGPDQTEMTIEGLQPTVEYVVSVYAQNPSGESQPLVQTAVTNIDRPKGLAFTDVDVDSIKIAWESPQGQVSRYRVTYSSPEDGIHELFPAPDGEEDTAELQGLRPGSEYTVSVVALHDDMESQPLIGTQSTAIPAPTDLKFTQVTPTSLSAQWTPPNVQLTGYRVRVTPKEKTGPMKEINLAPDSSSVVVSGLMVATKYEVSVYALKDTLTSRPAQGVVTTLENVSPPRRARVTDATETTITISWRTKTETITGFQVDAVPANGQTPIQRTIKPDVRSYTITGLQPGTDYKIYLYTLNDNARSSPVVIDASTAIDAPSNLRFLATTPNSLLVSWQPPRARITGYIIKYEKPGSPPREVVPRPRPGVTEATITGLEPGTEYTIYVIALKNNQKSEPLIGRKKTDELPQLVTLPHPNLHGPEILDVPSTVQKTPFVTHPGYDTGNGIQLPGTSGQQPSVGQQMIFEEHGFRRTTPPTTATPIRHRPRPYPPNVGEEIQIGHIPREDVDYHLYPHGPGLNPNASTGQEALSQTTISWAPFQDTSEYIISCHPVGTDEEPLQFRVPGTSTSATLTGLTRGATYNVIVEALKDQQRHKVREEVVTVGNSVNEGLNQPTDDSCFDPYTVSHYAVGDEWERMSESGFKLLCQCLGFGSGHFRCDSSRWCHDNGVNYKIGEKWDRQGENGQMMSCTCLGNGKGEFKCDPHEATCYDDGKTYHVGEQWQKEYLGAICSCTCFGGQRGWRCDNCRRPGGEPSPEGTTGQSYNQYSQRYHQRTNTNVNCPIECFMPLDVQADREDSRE
substance,measurement,value
"synthetic collagen peptide (CLP) derived from the Fn-binding region of the α1 chain of type I collagen (residues Q778-G799), with a terminal cysteine",drop of the CLP/Fn intensity ratio from low to high Fn fibre strain,52%
